From patent US20240043527A1 (BioNTech SE, priority 2020, published 2024)
pEC50: −log10 of the molar value.

What was measured:
CLDN-18.2 = target: T1, CLDN-18.2 (Homo sapiens, UniProt P56856); test: Flow cytometric binding assay on CLDN-18.2+ HEK293 transfectants; details: CHO-K1 supernatant on CLDN-18.2+ HEK293 transfectants
T1 construct: expressed in transfected cells; host or cells: HEK293

[1] = test system: CLDN-18.2+ NUG-C4 transfectants; test: In vitro ADCC assay (luciferase-based); type: cell-based, human; details: for ADCC, cellular cytotoxicity: control cells MDA-MB-231, human PBMCs, E:T 30:1
Procedure: (§1) RiboMab01-containing cell culture supernatant from CHO-K1 cells lipofected with RB_RMAB01 was subjected to (Panel A) ADCC and (Panel B) CDC assays. […] Human PBMCs of three different healthy donors were utilized as effector cells (E:T ratio 30:1). Target or control and effector cells were incubated for 48 hours with the indicated RiboMab01 and IMAB362 reference protein concentrations. Specific cell lysis as determined in a luciferase-based assay is shown. […] Target and control cells were incubated with human serum and RiboMab01 concentrations as indicated for 2 hours. CDC determined in a luciferase-based assay is shown. Error bars are standard errors of the mean (n=3).
(§2) Mode of action analysis: Antibody-dependent cellular cytotoxicity (ADCC) and complement-dependent cytotoxicity (CDC) in vitro. […] To simulate in vivo conditions, human PBMCs from three different healthy donors were used as effector cells in ADCC assays in an effector to target (E:T) ratio of 30:1 and human serum (e.g., commercially available human serum) was used as a source of complement in CDC assays.

[2] = test system: CLDN-18.2+ CHO-K1 transfectants; test: In vitro CDC assay (luciferase-based); type: cell-based; details: human serum, 2 hours, control CLDN-18.2-negative CHO-K1
Procedure: as §1, §2

[3] = test system: CLDN-18.2+ NUG-C4 transfectants; test: Ex vivo ADCC assay with serum of dosed non-human primates; type: cell-based; details: for ADCC target cell lysis: serum 24 hours and 168 hours post IV dosing of 0.1, 0.4, 1.6 mg/kg
Procedure: Non-Human Primates (NHP) received three repetitive doses of 0.1, 0.4 or 1.6 mg/kg RB_RMAB01 once weekly. RiboMab01-containing serum of all monkeys sampled 24 hours (black bars) and 168 hours (white bars) post 1st injection was directed to luciferase-based ex vivo ADCC assays. […] Human PBMCs from two different healthy donors (24 h, donor 1, 168 h, donor 2) served as effector cells. (Panel A) RiboMab01-mediated ADCC of NUG-C4 cells after 48 hours incubation is shown. (Panel B) Unspecific lysis on target-negative MDA-MB-231 cells is shown. Error bars are standard error of the mean (n=3). (Panel C) Serum of NHP No. 14 (1.6 mg/kg RB_RMAB01, RiboMab01 serum concentration 232 μg/mL) collected 48 hours after the 3rd dosing was used for a luciferase-based ex vivo ADCC assays. […] Human PBMCs of a healthy donor served as effector cells. […] Incubation time was 48 hours. Error bars are standard errors of the mean (n=3).
ADCC assays were performed as described in Example 2. […] Purified IMAB362 served as assay reference protein.

[4] = test system: CLDN-18.2+ NCI-N87 xenograft tumors; test: CLDN-18.2+ human gastric carcinoma xenograft tumor model; type: in vivo, mice; details: IV injections of 1-30 μg RB_RMAB01 on test days 15, 22, 29, 36, 43 and 50
Procedure: Median tumor growth of treatment and control groups is shown. Dotted lines indicate injections. Significance was calculated by Two-way ANOVA. Ns indicates not significant.

[5] = Single dose PK study in mice (ELISA); type: in vivo, Balb/cJRj mice; details: single IV dose
Procedure: Balb/cJRj mice received a single IV injection of 1 μg (0.040 mg/kg), 3 μg (˜0.10 mg/kg), 10 μg (˜0.40 mg/kg) or 30 μg (˜1.20 mg/kg) RB_RMAB01 drug product and […] IMAB362 reference protein. Plasma was sampled 6, 24, 96, 168, 264, 336 and 504 hours post administration. RiboMab01 concentrations in plasma measured via ELISA are shown. Error bars are standard errors of the mean (n=3).

[6] = Repetitive dose PK study in mice (ELISA); type: in vivo, Balb/cJRj mice; details: five weekly IV doses
Procedure: Balb/cJRj mice received IV injections of 1 μg (˜0.04 mg/kg), 3 μg (˜0.10 mg/kg), 10 μg (˜0.40 mg/kg) or 30 μg (˜1.20 mg/kg) RB_RMAB01 and 80 μg (˜3.20 mg/kg) IMAB362 reference protein at test days 1, 8, 15, 21 and 29. Plasma was sampled 24 hours pre- and 24 hours post-dosing. RiboMab01 concentrations in plasma measured via ELISA are shown. Dotted lines indicate injections. Error bars are standard errors of the mean (n=3).

[7] = Repetitive dose PK study in NHP (ELISA); type: in vivo, Cynomolgus monkey
Procedure: NHP received IV injections of 0.1, 0.4 or 1.6 mg/kg RB_RMAB01 at test days 1, 8 and […] was sampled 6, 24, 48, 72, 96 and 168 hours post 1st and 3rd dosing and 48, 72 and 168 hours post 2nd dosing as well as 264, 336 and 504 hours post 3rd dosing. RiboMab01 concentrations in plasma measured via ELISA are shown. Error bars are standard errors of the mean (n=3).
FIG. 14 is a graph showing dose-exposure correlation of RB_RMAB01 in cynomolgus monkey at tmax. Cynomolgus monkeys (n=3) received IV injections of 0.1, 0.4 or 1.6 mg/kg RB_RMAB01. Dose-dependent RiboMab01 concentrations (mean, n=3) in plasma measured via ELISA at Cmax are depicted. A green line indicates a dose that can be administered to a human subject and its corresponding anticipated serum concentration.
Treatment groups received three IV bolus injections of either 0.1 mg/kg, 0.4 mg/kg or 1.6 mg/kg at weekly intervals. As controls, saline or empty LNPs were administered likewise. Serum was sampled 6, 24, 48, 72, 96 and 168 hours post 1st and 3rd dosing and 48, 72 and 168 hours post 2nd dosing as well as 264, 336 and 504 hours post 3rd dosing.

Substance: CLDN-18.2-targeting RiboMab: CLDN-18.2-targeting IgG antibody (IMAB362 delivered as ribonucleic acid) expressed from mRNAs encoding heavy and light chain
- binding to CLDN-18.2 polypeptide (CLDN-18.2): bound preferentially
- binding to CLDN-18.2 polypeptide (CLDN-18.2; listed as RiboMab01): binds target specific to CLDN-18.2
- ADCC, cellular cytotoxicity [1]: target specific and dose-dependent cellular cytotoxicity comparable to the reference protein IMAB362
- ADCC, cellular cytotoxicity ([1]; listed as RiboMab01): high target specific cell cytotoxicity
- ADCC EC50 ([1]; human PBMCs from three donors, E:T 30:1, 48 hours): 10 to 127 ng/mL
- CDC, cellular cytotoxicity [2]: target specific and dose-dependent cellular cytotoxicity comparable to the reference protein IMAB362
- CDC, cellular cytotoxicity ([2]; listed as RiboMab01): high target specific cell cytotoxicity
- ADCC target cell lysis [3]: high and dose-dependent target cell lysis
- ADCC target cell lysis ([3]; listed as RiboMab01): dose-dependent ADCC
- pEC50 ([3]; serum of monkey No. 14 (1.6 mg/kg) 48 hours after 3rd dosing or recombinant reference protein, 48 hours incubation): 10.18
- ADCC EC50 ([3]; serum of monkey No. 14, 48 hours after 3rd injection, 10-point dilution row): 10 ng/mL
- tumor growth inhibition in vivo (FIG. 6) [4]: tumor growth inhibition
- time RiboMab detectable post administration [5]: up to 504 hours
- time RiboMab detectable post administration ([5]; listed as CLDN-18.2-targeting antibody agent): up to 504 hours post dosing.
- peak plasma concentration of RiboMab ([6]; 30 μg, 24 hours post-dosing): ≤ 1000 µg/mL
- RiboMab levels on weekly administration [6]: Sustained CLDN-18.2-targeting RiboMab
- RiboMab serum concentration, highest determined ([7]; NHP No. 14, 1.6 mg/kg, 48 hours after the 3rd dosing): 232 µg/mL
- Cmax compared with IMAB362 ([7]; between 48-72 hours post administration): notably lower Cmax than IMAB362
- tmax ([7]; dose-exposure correlation in cynomolgus monkey, FIG. 14): 48 h
- peak serum concentration of RiboMab ([7]; highest dose 1.6 mg/kg, 48-72 hours post 3rd administration): 231.7 µg/mL
- time RiboMab detectable (termination of the study) ([7]; post 1st dosing): 840 h
- expression on weekly administration ([7]; three weekly IV doses): sustainable
